# Test results from patent US20180155451A1 (published 2018).
# Molecular target: T1, FcγRIa extracellular domain with C-terminal His tag (human, UniProt P12314 16-292)
# T1 construct: extracellular domain; Expressed in FreeStyle293 cells; analyte in Biacore; also called FcgRI; FcgRIa
# Experiment: SPR Biacore, antibody captured, FcγRIa analyte; vs GpH7-A5/GpH7-B3/GpL16-k0 = 100
# T1 sequence (P12314 16-292): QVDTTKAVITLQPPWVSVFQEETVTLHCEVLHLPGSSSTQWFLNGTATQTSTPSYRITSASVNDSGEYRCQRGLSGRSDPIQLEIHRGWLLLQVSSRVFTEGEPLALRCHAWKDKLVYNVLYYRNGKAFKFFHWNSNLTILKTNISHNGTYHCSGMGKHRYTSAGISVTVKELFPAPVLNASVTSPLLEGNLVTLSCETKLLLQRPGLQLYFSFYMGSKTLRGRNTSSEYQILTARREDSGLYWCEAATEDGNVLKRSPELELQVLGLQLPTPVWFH
row,Binder,He/Con_1a
1,"GpH7-A5/GpH7-B3 variant E269_06M/GpL16-k0 (He Ab) (antibody, human IgG1, kappa, He Ab: alteration only in the GpH7-B3 chain) heavy 1: not shown heavy 2: not shown light: DIVMTQSPLSLPVTPGEPASISCQASESLVHSNRNTYLHWYLQKPGQSPQLLIYKVSNRFSGVPDRFSGSGSGTDFTLKISRVEAEDVGVYYCSQNTHVPPTFGQGTKVEIERTVAAPSVFIFPPSDEQLKSGTASVVCLLNNFYPREAKVQWKVDNALQSGNSQESVTEQDSKDSTYSLSSTLTLSKADYEKHKVYACEVTHQGLSSPVTKSFNRGEC",104 relative (control = 100)
2,"GpH7-A5/GpH7-B3 variant E333_13S/GpL16-k0 (He Ab) (antibody, human IgG1, kappa, He Ab: alteration only in the GpH7-B3 chain) heavy 1: not shown heavy 2: not shown light: DIVMTQSPLSLPVTPGEPASISCQASESLVHSNRNTYLHWYLQKPGQSPQLLIYKVSNRFSGVPDRFSGSGSGTDFTLKISRVEAEDVGVYYCSQNTHVPPTFGQGTKVEIERTVAAPSVFIFPPSDEQLKSGTASVVCLLNNFYPREAKVQWKVDNALQSGNSQESVTEQDSKDSTYSLSSTLTLSKADYEKHKVYACEVTHQGLSSPVTKSFNRGEC",103 relative (control = 100)
3,"GpH7-A5/GpH7-B3 variant I336_18N/GpL16-k0 (He Ab) (antibody, human IgG1, kappa, He Ab: alteration only in the GpH7-B3 chain) heavy 1: not shown heavy 2: not shown light: DIVMTQSPLSLPVTPGEPASISCQASESLVHSNRNTYLHWYLQKPGQSPQLLIYKVSNRFSGVPDRFSGSGSGTDFTLKISRVEAEDVGVYYCSQNTHVPPTFGQGTKVEIERTVAAPSVFIFPPSDEQLKSGTASVVCLLNNFYPREAKVQWKVDNALQSGNSQESVTEQDSKDSTYSLSSTLTLSKADYEKHKVYACEVTHQGLSSPVTKSFNRGEC",108 relative (control = 100)
4,"GpH7-A5/GpH7-B3 variant G236_20W/GpL16-k0 (He Ab) (antibody, human IgG1, kappa, He Ab: alteration only in the GpH7-B3 chain; also called GpH7-A5/GpH7-B3-03-20W/GpL16-k0) heavy 1: not shown heavy 2: not shown light: DIVMTQSPLSLPVTPGEPASISCQASESLVHSNRNTYLHWYLQKPGQSPQLLIYKVSNRFSGVPDRFSGSGSGTDFTLKISRVEAEDVGVYYCSQNTHVPPTFGQGTKVEIERTVAAPSVFIFPPSDEQLKSGTASVVCLLNNFYPREAKVQWKVDNALQSGNSQESVTEQDSKDSTYSLSSTLTLSKADYEKHKVYACEVTHQGLSSPVTKSFNRGEC",105 relative (control = 100)
5,"GpH7-A5/GpH7-B3 variant I336_01G/GpL16-k0 (He Ab) (antibody, human IgG1, kappa, He Ab: alteration only in the GpH7-B3 chain) heavy 1: not shown heavy 2: not shown light: DIVMTQSPLSLPVTPGEPASISCQASESLVHSNRNTYLHWYLQKPGQSPQLLIYKVSNRFSGVPDRFSGSGSGTDFTLKISRVEAEDVGVYYCSQNTHVPPTFGQGTKVEIERTVAAPSVFIFPPSDEQLKSGTASVVCLLNNFYPREAKVQWKVDNALQSGNSQESVTEQDSKDSTYSLSSTLTLSKADYEKHKVYACEVTHQGLSSPVTKSFNRGEC",109 relative (control = 100)
6,"GpH7-A5/GpH7-B3 variant K326_15Y/GpL16-k0 (He Ab) (antibody, human IgG1, kappa, He Ab: alteration only in the GpH7-B3 chain) heavy 1: not shown heavy 2: not shown light: DIVMTQSPLSLPVTPGEPASISCQASESLVHSNRNTYLHWYLQKPGQSPQLLIYKVSNRFSGVPDRFSGSGSGTDFTLKISRVEAEDVGVYYCSQNTHVPPTFGQGTKVEIERTVAAPSVFIFPPSDEQLKSGTASVVCLLNNFYPREAKVQWKVDNALQSGNSQESVTEQDSKDSTYSLSSTLTLSKADYEKHKVYACEVTHQGLSSPVTKSFNRGEC",106 relative (control = 100)
7,"GpH7-A5/GpH7-B3 variant I336_06M/GpL16-k0 (He Ab) (antibody, human IgG1, kappa, He Ab: alteration only in the GpH7-B3 chain) heavy 1: not shown heavy 2: not shown light: DIVMTQSPLSLPVTPGEPASISCQASESLVHSNRNTYLHWYLQKPGQSPQLLIYKVSNRFSGVPDRFSGSGSGTDFTLKISRVEAEDVGVYYCSQNTHVPPTFGQGTKVEIERTVAAPSVFIFPPSDEQLKSGTASVVCLLNNFYPREAKVQWKVDNALQSGNSQESVTEQDSKDSTYSLSSTLTLSKADYEKHKVYACEVTHQGLSSPVTKSFNRGEC",108 relative (control = 100)

# Now from value to binder:
row,He/Con_1a,Binder
1,104 relative (control = 100),"GpH7-A5/GpH7-B3 variant E269_08L/GpL16-k0 (He Ab) (antibody, human IgG1, kappa, He Ab: alteration only in the GpH7-B3 chain) heavy 1: not shown heavy 2: not shown light: DIVMTQSPLSLPVTPGEPASISCQASESLVHSNRNTYLHWYLQKPGQSPQLLIYKVSNRFSGVPDRFSGSGSGTDFTLKISRVEAEDVGVYYCSQNTHVPPTFGQGTKVEIERTVAAPSVFIFPPSDEQLKSGTASVVCLLNNFYPREAKVQWKVDNALQSGNSQESVTEQDSKDSTYSLSSTLTLSKADYEKHKVYACEVTHQGLSSPVTKSFNRGEC"
2,105 relative (control = 100),"GpH7-A5/GpH7-B3 variant I336_03V/GpL16-k0 (He Ab) (antibody, human IgG1, kappa, He Ab: alteration only in the GpH7-B3 chain) heavy 1: not shown heavy 2: not shown light: DIVMTQSPLSLPVTPGEPASISCQASESLVHSNRNTYLHWYLQKPGQSPQLLIYKVSNRFSGVPDRFSGSGSGTDFTLKISRVEAEDVGVYYCSQNTHVPPTFGQGTKVEIERTVAAPSVFIFPPSDEQLKSGTASVVCLLNNFYPREAKVQWKVDNALQSGNSQESVTEQDSKDSTYSLSSTLTLSKADYEKHKVYACEVTHQGLSSPVTKSFNRGEC"
3,103 relative (control = 100),"GpH7-A5/GpH7-B3 variant P271_11K/GpL16-k0 (He Ab) (antibody, human IgG1, kappa, He Ab: alteration only in the GpH7-B3 chain) heavy 1: not shown heavy 2: not shown light: DIVMTQSPLSLPVTPGEPASISCQASESLVHSNRNTYLHWYLQKPGQSPQLLIYKVSNRFSGVPDRFSGSGSGTDFTLKISRVEAEDVGVYYCSQNTHVPPTFGQGTKVEIERTVAAPSVFIFPPSDEQLKSGTASVVCLLNNFYPREAKVQWKVDNALQSGNSQESVTEQDSKDSTYSLSSTLTLSKADYEKHKVYACEVTHQGLSSPVTKSFNRGEC"
4,103 relative (control = 100),"GpH7-A5/GpH7-B3 variant E333_01G/GpL16-k0 (He Ab) (antibody, human IgG1, kappa, He Ab: alteration only in the GpH7-B3 chain) heavy 1: not shown heavy 2: not shown light: DIVMTQSPLSLPVTPGEPASISCQASESLVHSNRNTYLHWYLQKPGQSPQLLIYKVSNRFSGVPDRFSGSGSGTDFTLKISRVEAEDVGVYYCSQNTHVPPTFGQGTKVEIERTVAAPSVFIFPPSDEQLKSGTASVVCLLNNFYPREAKVQWKVDNALQSGNSQESVTEQDSKDSTYSLSSTLTLSKADYEKHKVYACEVTHQGLSSPVTKSFNRGEC"
